Laboratory results from patent US10428140B2, “Anti-EphA4 antibody” (EISAI R&D MANAGEMENT CO., LTD., priority 2015, dated 2019).
Positions count from the first letter of the chain named.

Experiments:
human EphA4 = molecular target: T1, human EphA4 (Homo sapiens, UniProt P54764); test: Affinity of humanized antibodies by SPR (Biacore T200); type: binding; settings: human EphA4 extracellular region-SEAP-His; for ka / kd: 1:1 binding model; for Kd: KD=kd/ka
T1 construct: made in house; not restated for the human SEAP-His protein
T1 sequence (P54764 20-547): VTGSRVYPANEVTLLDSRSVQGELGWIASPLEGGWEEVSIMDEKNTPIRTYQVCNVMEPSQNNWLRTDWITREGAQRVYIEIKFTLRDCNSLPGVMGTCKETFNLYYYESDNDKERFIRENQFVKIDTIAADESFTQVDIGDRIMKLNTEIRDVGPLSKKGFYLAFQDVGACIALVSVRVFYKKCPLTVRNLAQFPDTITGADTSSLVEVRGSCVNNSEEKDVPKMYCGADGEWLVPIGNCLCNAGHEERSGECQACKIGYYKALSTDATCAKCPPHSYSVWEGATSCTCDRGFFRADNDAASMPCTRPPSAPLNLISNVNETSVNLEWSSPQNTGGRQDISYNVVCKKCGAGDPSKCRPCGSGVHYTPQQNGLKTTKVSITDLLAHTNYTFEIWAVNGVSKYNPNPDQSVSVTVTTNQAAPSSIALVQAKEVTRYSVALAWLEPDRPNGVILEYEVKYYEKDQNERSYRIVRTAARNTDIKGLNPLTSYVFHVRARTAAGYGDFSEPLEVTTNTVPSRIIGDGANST
In short: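 Humanized antibodies captured on protein A chip (antibody A via immobilized rat anti-mouse IgG1) at about 30 to 60 RU in HBS-EP; human EphA4 extracellular region-SEAP-His injected single-cycle at 0.6 to 50 nM, 120 s association, 900 s dissociation. KD = kd/ka from 1:1 binding fits.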

[1] = molecular target: T2, human EphA4 (binding to human Ephrin A5) (Homo sapiens, UniProt P54764); test: Human EphA4-human ligand binding inhibition ELISA of humanized antibodies (biotinylated Ephrin A5-Fc); settings: biotinylated human Ephrin A5-Fc 0.7 nM
T2 construct: made in house; not restated for the human SEAP-His protein
T2 sequence (P54764 20-547): as above
In short: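 Wells coated with anti-alkaline phosphatase antibody captured human EphA4 extracellular region-SEAP-His at 10 nM. Biotinylated human Ephrin A5-Fc (0.7 nM) and serially diluted humanized antibody (0-3000 nM) were added together for 1 h at room temperature. Bound ligand was detected with HRP-streptavidin and TMBZ at A450.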

B1: 75 (antibody)
VH: QVQLVQSGSELKKPGASVKVSCKASGYTFTDYSMHWVRQAPGQGLEWMGWINTETGEPTYAQGFTGRFVFSLDTSVSTAYLQISSLKAEDTAVYYCARIPLYYYGSRYWYFDVWGQGTTVTVSS
VL: DIQMTQSPSSLSASVGDRVTITCRASENIYRNLAWYQQKPGKAPKLLVYAATNLADGVPSRFSGSGSGTDYTLTISSLQPEDFATYYCQHFWGTPWTFGQGTKVEIK
chain: ASTKGPSVFPLAPSSKSTSGGTAALGCLVKDYFPEPVTVSWNSGALTSGVHTFPAVLQSSGLYSLSSVVTVPSSSLGTQTYICNVNHKPSNTKVDKRVEPKSCDKTHTCPPCPAPPAAAPSVFLFPPKPKDTLMISRTPEVTCVVVDVSHEDPEVQFNWYVDGVEVHNAKTKPREEQFNSTFRVVSVLTVVHQDWLNGKEYKCKVSNKGLPAPIEKTISKTKGQPREPQVYTLPPSREEMTKNQVSLTCLVKGFYPSDIAVEWESNGQPENNYKTTPPMLDSDGSFFLYSKLTVDKSRWQQGNVFSCSVMHEALHNHYTQKSLSLSPG
modifications: synthetic humanized antibody heavy chain variable region sequence; synthetic humanized antibody light chain variable region sequence; synthetic antibody constant region sequence
B1 showed a ka (human EphA4) of 380000 M⁻¹ s⁻¹, a kd (human EphA4) of 0.00042 s⁻¹ and a Kd (human EphA4) of 1.2 nM. It also gave an IC50 [1] of 2.9 nM.

B2: 77 (antibody, V domains shown)
VH: B1 VH with Q62D, G63D, T65K
VL: B1 VL
modifications: synthetic humanized antibody heavy chain variable region sequence; synthetic humanized antibody light chain variable region sequence
For B2, the ka (human EphA4) was 410000 M⁻¹ s⁻¹, the kd (human EphA4) was 0.00058 s⁻¹ and the Kd (human EphA4) was 1.4 nM. The IC50 [1] was 3.5 nM.

B3: 76 (antibody, V domains shown)
VH: B1 VH with E46K
VL: B1 VL
modifications: synthetic humanized antibody heavy chain variable region sequence; synthetic humanized antibody light chain variable region sequence
B3 was tested, and the ka (human EphA4) was 330000 M⁻¹ s⁻¹, the kd (human EphA4) was 0.00034 s⁻¹ and the Kd (human EphA4) was 1 nM. It also gave an IC50 [1] of 2.9 nM.

B4: 78 (antibody, V domains shown)
VH: B1 VH with E46K, Q62D, G63D, T65K
VL: B1 VL
modifications: synthetic humanized antibody heavy chain variable region sequence; synthetic humanized antibody light chain variable region sequence
B4 gave a ka (human EphA4) of 340000 M⁻¹ s⁻¹, a kd (human EphA4) of 0.00039 s⁻¹ and a Kd (human EphA4) of 1.1 nM. The IC50 [1] was 2.8 nM.

B5: 67 (antibody, V domains shown)
VH: B1 VH with V2I, E46K
VL: B1 VL
modifications: synthetic humanized antibody heavy chain variable region sequence; synthetic humanized antibody light chain variable region sequence
B5 showed a ka (human EphA4) of 330000 M⁻¹ s⁻¹, a kd (human EphA4) of 0.00035 s⁻¹ and a Kd (human EphA4) of 1.1 nM. It also gave an IC50 [1] of 4.4 nM.
